Laboratory results published in paper PMC8938331 (Molecular Metabolism, 2022).

Assays:
[1] = molecular target: T1, Recombinant mouse MD2 (Beijing ABIOCENTER) (mouse, UniProt Q9JHF9 19-160); experiment: SPR
T1 sequence (looked up): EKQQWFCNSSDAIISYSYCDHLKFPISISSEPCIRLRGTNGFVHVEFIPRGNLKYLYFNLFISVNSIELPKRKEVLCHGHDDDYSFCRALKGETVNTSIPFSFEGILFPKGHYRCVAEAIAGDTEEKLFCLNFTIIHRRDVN

[2] = molecular target: T2, Recombinant mouse TLR4 (R&D system) (mouse, UniProt Q9QUK6 26-638); experiment: SPR
T2 sequence (looked up): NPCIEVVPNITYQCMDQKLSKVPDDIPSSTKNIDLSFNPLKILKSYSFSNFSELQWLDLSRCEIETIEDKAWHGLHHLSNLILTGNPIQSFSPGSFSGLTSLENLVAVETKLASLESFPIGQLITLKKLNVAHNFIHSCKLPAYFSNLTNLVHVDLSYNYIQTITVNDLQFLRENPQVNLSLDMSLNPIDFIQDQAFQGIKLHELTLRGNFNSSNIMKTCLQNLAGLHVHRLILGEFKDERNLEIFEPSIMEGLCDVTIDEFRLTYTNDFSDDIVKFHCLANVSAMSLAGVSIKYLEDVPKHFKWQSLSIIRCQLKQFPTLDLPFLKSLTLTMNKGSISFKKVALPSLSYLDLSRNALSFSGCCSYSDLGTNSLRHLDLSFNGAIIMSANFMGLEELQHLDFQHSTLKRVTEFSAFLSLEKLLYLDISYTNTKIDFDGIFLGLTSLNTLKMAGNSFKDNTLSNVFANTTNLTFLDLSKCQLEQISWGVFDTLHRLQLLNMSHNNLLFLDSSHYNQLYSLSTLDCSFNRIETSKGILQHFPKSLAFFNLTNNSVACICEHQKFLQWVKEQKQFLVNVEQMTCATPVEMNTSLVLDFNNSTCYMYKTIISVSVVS

B1: Mouse serum amyloid A1 (residues 19-122), recombinant (natural protein, UniProt P05366 19-122, looked up)
chain: GGFFSFVHEAFQGAGDMWRAYTDMKEANWKNSDKYFHARGNYDAAQRGPGGVWAAEKISDGREAFQEFFGRGHEDTIADQEANRHGRSGKDPNYYRPPGLPDKY
**Q.** With B1 as the binder, how does the Kd [1] read?
**A.** 0.123 µM

**Q.** And the Kd [2]?
**A.** 0.497 µM
